Laboratory results as given in the RNAGym collection of RNA variant scans (doi:10.1021/acssynbio.7b00057).

B1: Pistol ribozyme (parent)
chain: GGGUCGUUGUUCCAUAAUCGCGUGGAUAUGGCACGCAAGUUUCUACCGGGCACCGUAAAUGUCCGACUGGAGCCGUUCGGGCGGCUAUAAACAGACCUCAGGCCCGAAGCGUGGCGGCACCUGCCGCCGGUGGUAAAAAAGAUCGGAAGAGCACACGUCU

Variants of: B1
Test: aptazyme ON/OFF ratio, guanine; higher = stronger switching; co-transcriptional cleavage with and without guanine

Row | Variant | aptazyme ON/OFF ratio
1 | U7A G9A U11G C12U C13A | 1.34
2 | U7A G9A U11G C12U C13G | 1.2
3 | U7A G9A U11G C12U C13U | 1.27
4 | U7A G9A U10A U11C C12A C13A | 1.18
5 | U7A G9A U10A U11C C12A C13U | 1.1
6 | U7A G9A U10A U11C C12A C13G | 1.15
7 | U7A C12G C13A | 1.38
8 | U7A C12G C13G | 1.26
9 | U7A C12G C13U | 1.27
10 | U7A G9A U10A U11C C12U C13G | 1.18
11 | U7A G9A U10A U11C C12U C13U | 1.15
12 | U7A G9A U10A U11C C12U C13A | 1.13
13 | U7A G9A U10C U11A C12G C13G | 1.32
14 | U7A G9A U10C U11A C12G C13U | 1.16
15 | U7A G9A U10C U11A C12G C13A | 1.19
16 | U7A G9C U10A C13U | 1.18
17 | U7A G9C U10A C13A | 1.16
18 | U7A G9C U10A C13G | 1.08
19 | U7A G9A U10G C12A C13A | 1.17
20 | U7A G9A U10G C12A C13U | 1.34
21 | U7A G9A U10G C12A C13G | 1.15
22 | U7A G9A U10A U11C C13U | 1.06
23 | U7A G9A U10A U11C C13G | 1.1
24 | U7A G9A U10A U11C C13A | 1.02

Row | Variant | aptazyme ON/OFF ratio
25 | U7A G9A U10G C13U | 1.28
26 | U7A G9A U10G C13A | 1.29
27 | U7A G9A U10G C13G | 1.17
28 | U7A G9A C12G C13A | 1.12
29 | U7A G9A C12G C13G | 1.24
30 | U7A G9A C12G C13U | 1.17
31 | U7A G9A U10A U11A C12U | 1.21
32 | U7A G9A U10A U11A C12A | 1.25
33 | U7A G9A U10A U11A C12G | 1.15
34 | U7A G9A U11C C12G C13U | 1.15
35 | U7A G9A U11C C12G C13G | 1.17
36 | U7A G9A U11C C12G C13A | 1.18
37 | U7A G9A U10C U11A C12G | 1.27
38 | U7A G9A U10C U11A C12U | 1.31
39 | U7A G9A U10C U11A C12A | 1.24
40 | U7A G9A U11C C12U C13A | 1.1
41 | U7A G9A U11C C12U C13U | 1.22
42 | U7A G9A U11C C12U C13G | 1.27
43 | U7A G9A U10G U11A C12G C13U | 1.17
44 | U7A G9A U10G U11A C12G C13G | 1.31
45 | U7A G9A U10G U11A C12G C13A | 1.12
46 | U7A G9A U10C C12G | 1.34
47 | U7A G9A U10C C12A | 1.43
48 | U7A G9A U10C C12U | 1.26

Row | Variant | aptazyme ON/OFF ratio
49 | U7A G9A U10G U11C | 1.06
50 | U7A G9A U10G U11G | 1.08
51 | U7A G9A U10G U11A | 1.06
52 | U7A G9A U10C U11C C12A | 1.18
53 | U7A G9A U10C U11C C12U | 1.03
54 | U7A G9A U10C U11C C12G | 1.09
55 | U7A G9C U10A U11C C12A C13A | 1.06
56 | U7A G9C U10A U11C C12A C13G | 1.1
57 | U7A G9C U10A U11C C12A C13U | 1.09
58 | U7A G9A U10G U11A C12A C13A | 1.11
59 | U7A G9A U10G U11A C12A C13U | 1.21
60 | U7A G9A U10G U11A C12A C13G | 1.15
61 | U7A G9A U10A U11G C12A C13G | 1.22
62 | U7A G9A U10A U11G C12A C13A | 1.16
63 | U7A G9A U10A U11G C12A C13U | 1.09
64 | U7A G9C U10A U11A C13G | 1.03
65 | U7A G9C U10A U11A C13U | 1.1
66 | U7A G9C U10A U11A C13A | 1.11
67 | U7A G9C U10A U11C C12U | 1.07
68 | U7A G9C U10A U11C C12G | 1.21
69 | U7A G9C U10A U11C C12A | 1.08
70 | U7A G9C C12G C13U | 1.05
71 | U7A G9C C12G C13A | 1.05
72 | U7A G9C C12G C13G | 1.05

Row | Variant | aptazyme ON/OFF ratio
73 | U7A G9A U11G C12G C13A | 1.17
74 | U7A G9A U11G C12G C13U | 1.42
75 | U7A G9A U11G C12G C13G | 1.24
76 | U7A G9A U10A U11G C12U | 1.17
77 | U7A G9A U10A U11G C12G | 1.13
78 | U7A G9A U10A U11G C12A | 1.1
79 | U7A G9C U10A U11A C12U C13A | 1.13
80 | U7A G9C U10A U11A C12U C13U | 1.1
81 | U7A G9C U10A U11A C12U C13G | 1.1
82 | U7A G9A U10G C12U C13A | 1.06
83 | U7A G9A U10G C12U C13G | 1.14
84 | U7A G9A U10G C12U C13U | 1.32
85 | U7A G9A U11A C12U | 1.54
86 | U7A G9A U11A C12A | 1.34
87 | U7A G9A U11A C12G | 1.23
88 | U7A G9C C12U | 1.1
89 | U7A G9C C12G | 1.08
90 | U7A G9C C12A | 1.06
91 | U7A G9A | 1.83
92 | U7A G9C | 1.25
93 | U7A G9C C12U C13U | 1.1
94 | U7A G9C C12U C13A | 1.05
95 | U7A G9C C12U C13G | 1.07
96 | U7A G9A U10C C12G C13U | 1.2

Row | Variant | aptazyme ON/OFF ratio
97 | U7A G9A U10C C12G C13G | 1.17
98 | U7A G9A U10C C12G C13A | 1.15
99 | U7A G9A U10C U11C C12A C13G | 1.08
100 | U7A G9A U10C U11C C12A C13U | 1.12
101 | U7A G9A U10C U11C C12A C13A | 1.06
102 | U7A G9A U10G U11C C13U | 1.02
103 | U7A G9A U10G U11C C13G | 1.11
104 | U7A G9A U10G U11C C13A | 1.19
105 | U7A G9A U10A U11C C12U | 1.1
106 | U7A G9A U10A U11C C12A | 1.16
107 | U7A G9A U10A U11C C12G | 1.19
108 | U7A G9A U11G C12A | 1.18
109 | U7A G9A U11G C12U | 2.19
110 | U7A G9A U11G C12G | 1.29
111 | U7A G9A U10C U11C | 1.01
112 | U7A G9A U10C U11A | 1.27
113 | U7A G9A U10C U11G | 1.31
114 | U7A G9A C13G | 1.06
115 | U7A G9A C13A | 1.24
116 | U7A G9A C13U | 1.32
117 | U7A G9A U10A U11A C12G C13U | 1.05
118 | U7A G9A U10A U11A C12G C13G | 1.21
119 | U7A G9A U10A U11A C12G C13A | 1.09
120 | U7A C12U C13A | 1.29

Row | Variant | aptazyme ON/OFF ratio
121 | U7A C12U C13G | 1.16
122 | U7A C12U C13U | 1.38
123 | U7A G9A U10G U11A C12U C13A | 1.09
124 | U7A G9A U10G U11A C12U C13G | 1.06
125 | U7A G9A U10G U11A C12U C13U | 1.17
126 | U7A G9A U10A U11C | 1.07
127 | U7A G9A U10A U11A | 1.34
128 | U7A G9A U10A U11G | 1.3
129 | U7A G9A U11C C12A C13A | 1.17
130 | U7A G9A U11C C12A C13G | 1.14
131 | U7A G9A U11C C12A C13U | 1.16
132 | U7A G9C U10A U11C C12U C13U | 1.12
133 | U7A G9C U10A U11C C12U C13A | 1.1
134 | U7A G9C U10A U11C C12U C13G | 1.13
135 | U7A G9A U10A C13G | 1.09
136 | U7A G9A U10A C13U | 1.29
137 | U7A G9A U10A C13A | 1.26
138 | U7A G9A U10G U11G C12A | 1.06
139 | U7A G9A U10G U11G C12G | 1.38
140 | U7A G9A U10G U11G C12U | 1.47
141 | U7A G9A U10G C12G C13A | 1.21
142 | U7A G9A U10G C12G C13U | 1.18
143 | U7A G9A U10G C12G C13G | 1.11
144 | U7A G9A U10A | 1.52

Row | Variant | aptazyme ON/OFF ratio
145 | U7A G9A U10C | 1.96
146 | U7A G9A U10G | 1.53
147 | U7A G9A U10G U11A C12G | 1.12
148 | U7A G9A U10G U11A C12A | 1.17
149 | U7A G9A U10G U11A C12U | 1.05
150 | U7A G9A U10A C12G C13A | 1.25
151 | U7A G9A U10A C12G C13U | 1.41
152 | U7A G9A U10A C12G C13G | 1.3
153 | U7A G9A U10G U11C C12U C13G | 1.18
154 | U7A G9A U10G U11C C12U C13U | 1.21
155 | U7A G9A U10G U11C C12U C13A | 1.2
156 | U7A G9C U10A C12A | 1.11
157 | U7A G9C U10A C12U | 1.14
158 | U7A G9C U10A C12G | 1.13
159 | U7A G9A U10C U11G C12U C13G | 1.21
160 | U7A G9A U10C U11G C12U C13A | 1.15
161 | U7A G9A U10C U11G C12U C13U | 1.3
162 | U7A C12A C13A | 1.4
163 | U7A C12A C13G | 1.2
164 | U7A C12A C13U | 1.22
165 | U7A G9A U10G U11G C12U C13G | 1.33
166 | U7A G9A U10G U11G C12U C13U | 1.26
167 | U7A G9A U10G U11G C12U C13A | 1.17
